# Results published in the nanobody polyreactivity screen of Harvey et al. (2022).
# Experiment: yeast display, Sf9 membrane polyspecificity reagent, FACS + sequencing; frameworks hold sequencing errors
# Procedure, shortened: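 Sorting gates, low and high (top ~1%), were placed on anti-HA fluorescence to track expression and on streptavidin fluorescence to track reagent binding. A clone's polyreactivity label is taken from the gate it came out of. The reagent was 10% biotinylated, detergent-solubilized Sf9 membrane, applied for 1 hour at 4 °C to galactose-induced yeast display cells.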
row,Sequence,polyreactivity (PSR sort gate)
1,QVQLVESGGGLVQAGGSLRLSCAASGIIFFIYAMGWYRQAPGKERELVARISIGGSTYYADSVKGRFTISRDNAKNTVYLQMNSLKPEDTAVYYCAARCGGLRATYHYWGQGTQVTVSS,low polyreactivity
2,QVQLVESGGGLVQAGGSLRLSCAASGRTFPSYTMGWYSQAPGKERELVAAITWTGGSTYYADSVKGRFTISRDNAKNTVYLQMNSLKPEDTAVYYCADYDYWGQGTQVTVSS,low polyreactivity
3,QGQLVESGGGEVQAGGSLRLSCAASGFTFGSNAMGWYRPAPGKERELVAAISSTGSTYYADSVKGRFTLSRDNAKNTVYVQMNSLKPEDPAVYYCNADSDTPRYDYWGQGTQVTVSS,low polyreactivity
4,QDQLEESGGGLVQAGGSLRLSCAASGSTCVKYARGWYRPAPGKERELVAAISTRGGTTYYADSVKGRFTISRDNAKNTVYLQMNSLKPEDTAVYYCATGSYSRGVAYGYWGQGTQVTVSS,high polyreactivity
5,QFQLVESGGGLVQAGGSLRLSCAASGFTIYIYAKGWYRQAPGKERELVAAINFRGGSTYYADSVKGRFTISGDNAKKTVYLQLNSLKPEDTAVYYCAAVPRTYSGYYYWGQGTQVSVSS,high polyreactivity
6,QVQLVESGGGLVQAGGSLRLSCAASGRTIRYYAMGWYRQAPGKERELVAAITWSVGSTYYADSVKGRFTISRDNAKNTVYLQMNSLKPEDTAVYYCAARLYQLYYWGQGTQVTVSS,high polyreactivity
7,QVQLVESGGGLVQAGGSLRLSCAASGRTFNAYAMGWYRHAPGKERELVAAISSGGSTYYADSVKGRFTISRDNAKNTVYLLMNSLKPEDTAVYYCNKVYGWRQFDYWGQGTQVTVSS,high polyreactivity
8,QVQLVESGGGLVQAGGSLRLSCAASGFTFRINAMGWYRQAPGKERELVAAITWIGGSTYYADSVKGRFTISRDNAKNTVYLQMNSLKPEDTALYYCAADVYNRWWWRAYDYWGQGTQVTVSS,high polyreactivity
9,QVQLVESGGGLVQAGGSLRLSCAASGSTFKKYVMGWYRQAPGKERELVAAISGRGGSTYYADSVKGRFTISRDNAKNTVYLQMNSLKPEDTAVYYCNARKQTARFDSWGQGTQVTVSS,high polyreactivity
10,QVQLVESGGGLVQAGGSLRFSCAASGFIFGDYAMGWDRQAPGTEREFVATISRSVGSRSYADSVKGRFTISRDNAKKPVYLQMNSLKPEDTAVYYCAAVTWGEGFDYWGQGTQVTVSA,low polyreactivity
11,QVQLVESGGGLVQAGGSLRLSCAASGSTFTGYAMGWYRQAPGKERELVAAITRGGSTYYADSVKGRFTISRDNAKNTVFLQMNSLKPEDTAVYYCAAKPTSREPTGPRYYYWGQGTQVTVSS,high polyreactivity
12,HVQLVESAGGLVQAGGRLSLSCAAYGSICDRYAMGWYRQAPGKEREKVAAIYSSGGRTYYADSVKGRFTISRDNAKNTVYLQMKSLKPEDTAVYYCNAEFWGGTPVAFSADYEYWGQGTQVTVSS,high polyreactivity
13,QVQLVESGGGLVQAGGSLRLSCAASGGTYRSNAMGWYRQAPGKERELVAASTNYADSVKGRFTISRDNAKNTVYLQMNSLKPEDTAVYYCAAGPTDSQTGMDYWGQGTQVTVSS,low polyreactivity
14,QVQLVESVGGLVQAGGSLRLSCAASGFTFVSNAMGWDRQEPGKERELVAAISTGGRTYYADSVKGRFTISRDNAKNTVYLQMNSLKTEDTAFYYCNARYGLRYVRYGEMDYWGQGTQVTVSS,high polyreactivity
15,QVQLVESGGGLVQAGGSLRLSCAASGRTFNFNTMGWYRQSPGKERELVASITSGGSTNYADSVKGRFTISRDNAKNTVYIQMNILKPEDTAVYYFAVTVSGPYAYDYWGQGTQVTVSS,low polyreactivity
16,QVQLVESGGGVVQAGGSLRLSCAASGRIFRYTMGWYRQAPGKETELVADITRHGGSTYYADSVKGRFTISRDNAKNTVYLQMNSLKPEDTAVYYCAADHLSYRRRYEYWGQGTQVTVSS,low polyreactivity
17,QVQLVESGGGLVQAGGSLRLSCAASGLTFDNNAMGWYRQAPGTERELVAAISYRGSSTYYADSVKGRFTISRDNAKNTVYLQMNSLKPEDTAVYYCAADVVDLGRFDYWGQRTQVTVSS,low polyreactivity
18,QVQLVESGGGLVQAGGSLRLSCAASGFTFATYTIGWYRPAPGKERELVAAISWSGGSTYYADSVKGRFTISRDNAKNTVYLQMNSLKPEDTAFYYCAAQRPSALRLYSSQRTIFGYWGQGTQVTVSS,high polyreactivity
19,QVQLVESGGGLVQAGGSLRLSCAASGSTFPPNPMGWYRKATGKERELVSSIRRGGSTHYADSVKGRFTISRDNEKNTVYLQMNSLKPEDTAVYYCAKDVWRHYLNLYDYWGQGTQVTVSS,low polyreactivity
20,QVQLVESGGGLVQAGGSLRLSCAASGRTFGPYAMGWSRQAPGKEREFVAAISYSGGSTYYADSVKGRFTISRDNAKNTVYFQITSLKPEDTAVYYCAVDIDSNSGTRDYWGQGTQVTVSS,low polyreactivity
21,QLQLQESGGGLVQAVVDLRQSCAESVNIFRDYIMGCYRQAPGKELEFVAGIDRGANTNFADSEKGRFTISRDNAKNTVYLQMNSLKPEDTAVYYCAVHTAIVPEFIYWGLGTQVTVSS,low polyreactivity
22,QVQLVESGGGLVQAGGSLRLSCAASGRTFKKYAMGWYRQAPGKERELVAAITSRVGSTSYADSVKGRFTISRDNAKNTVYLQMNSLKPEDTAVYYCAARYSVGTGYGYWGQGTQVTVSS,high polyreactivity

row,Sequence,polyreactivity (PSR sort gate)
1,QVQLVESGGGLVQAGGSLRLSCAASGFTFFSNAMGWYREAPGQERELVASITNDGSTYADSVKGRFTISRDNAKNTVYLQMNSLKPEDTAVYYCAARFPQWRYSRRTCERFDYWGQGTQVTVSS,low polyreactivity
2,QVQLVESGGGLVQAGGSLRLSCAASGRTIDSNAMGWYRQAPGKERELVAAISSDGGSTYYADSVKGRFTISRDNAKNTVYLQMNSLKPEDTAVYYCNKDDPVDGPLYFRKYDYWGQGTQVTVSS,low polyreactivity
3,QVQLVESGGGLVQAGGSLRLSCAASGSTFGQYVMGWYRQAPGKERELVAAISSADSTNYADSVKGRFTISRDNAKNTVYLQMNSLKPEDTAVYYCAAARRPTYWPVYPYFGYEYWGQGTQVTVSS,low polyreactivity
4,QVQLVESGGGLVQAGGSLRLTSDASGFTFRSNAMGWYRQAPGKERELVAAITSRGGSTYYADSVKGRFTISRDYAKNTVYLQMNSLKPEDTAVYYCAADGRSRKFDYWGQGTQVTVSS,high polyreactivity
5,QVQLQESGGGLVQAGGSMRLSCAASGSISELSPMGWYRQAPGKERELVAGISTGGSTNYADSVKGRFTISRDNAKNTVYLQMNSLKPEDTAVYYCAAASYGEGSYDYWGQGTQVTVRS,high polyreactivity
6,QVQLVESGGGLVQAGGSLRLSCAASGSTFNYYDMGWYRQAPGKERELVATITSRGRSTYYADSVKGRFTISRDNAKNTVYLQMNSLKPVDTAVYYCAADWRAYIRRAAYSPFDYWGQGTQVTVSS,low polyreactivity
7,QVQLVESGGGFVQAGGSLRLSCAASGLTFWPYVMGWYRQAPGKERELVAAIDDTGITYYADSVKGRFTISRDNAKNTVYLQMNSLKPEDTAVYYCATDWDYYFPWIYPSDAGPEDGYWGQGTQVTVSS,low polyreactivity
8,QVQLVESGGGLVQAGGSLRLSCAASGNILRGYAMGWYRQAPGKERELVAAINRGGGSTYYADSVKGRFTISRDYAKNTVYFQMNSLKPEDTAVYYCAARYPHRGYTFDYWGQGTQVTVSS,low polyreactivity
9,QVQLVESGGGLVQAGGSLRLSCAASGSIFGGYAMGWYRQAPGKERELVAAITWNGGSTYYADSVKGRFTISRDNAKNTVYLQMNSLKPEDTAVYYCAAELPGRDAGRYDYWGQGTQVTVSS,low polyreactivity
10,KVQLVESGSGLVQAGGSHSISCAASGGTIACYVMGWYRPAPGKEREFVATISWSGTSTYYADSVKGRFTISRDNAKNTVDLLMYSLKPEDTAVFYCNKPGSSWPDFYSYNYWGLGTQVTVSS,low polyreactivity
11,QVQLVESGGGLVQAGGSLRLSCAASGSIFRGNAMGWYRQAPGKEMELVAAINKSGGSTYYADSVKGRFTISRDNAKNTVYLQMNSLKPEDTAVYYCAAVYKRLQPYGYWGQGTQVTVSS,high polyreactivity
12,QVQLVDSGGGLVQAGGSLRLSCAASGRIFHCYAMGWYRQAPGKERELVAAIRASGGRTYYADSVKGRFTISRDNAKNTVYLQMNSLKPEDTAVYYCAADSVKYGGDYWGQGTQVTVSS,high polyreactivity
13,QVQLVESGGGLVQAGGSLRLSCAASGITFYGYVMGWYRQAPGKERELVAAISTSGGSTYYADSVKGRFTISRDNAKNTVYLQMNSLKPEDTAVYYCAKYLYPFYPDYDYWGQGTQVTVSS,high polyreactivity
14,QVQLVESGGGLVQAGGSLRLSCAASGSIFYHYAMGWYRQAPGKERELVAAISRSGGRTYYADSVKGRFTISRDNAKNTVYLQMNSLKPEDTAVYYCAAGTSWPWYQRDYWGQGTQVTVSS,low polyreactivity
15,QVQLVESGGGLVQAGGSLRLSCAASGGIFRVYAMGWYRQAPGKERELVAAISRSGSSTYYAVSVKGRFTISRDNAKNTVYLQMNSLKPEDTAVYYCNAYSQYWLGNNYWGEGTQVTVSS,high polyreactivity
16,QVQLVESGVGLFQAGGSLRLSCAASGRIFTLYTMGWYRQAPGKEREFVAALSRTGGRTYYADSVKGRFTISRDNAKNTVYLQMNSLKPEDTAVYYCAARSQSYTTHRYYYWGQGSQVTVSS,high polyreactivity
17,QVQLVESGGGLVQAGGSLRLRCAASGNIFYGNAMGWYRQAPGKERELVAGITSGGSTNYADSVKGRFTISRDNAKNTVYLQMNSLKPEDTAVYYCNATSSGSIFGYDYWGQGTQVTVSS,low polyreactivity
18,QVQLVESGGGLVQAGGSLRLSCAASGIIFVPNTMGWYRQAPGKERELVAAIRWSGGTTYYADSVKGRFTISRDNAKNTVYLQMNSLKPEDTAVYYCAARYGSRSSYLAYYYWGQGTQVTVSS,high polyreactivity
19,QVQLVESGGGLVQAGGSLRLSCAASGGIFTYYAMGWYRQAPGKERELVAAITWSGGSTYYADSVKGRFTISRDTAKNTVYLQMNSLKPEDTAVYYCNAVVLHVTTDNSTFTTDDYWGQGTQLTVSS,low polyreactivity
20,QVQLVESGGGLVQAGGSLRLSCAPSGRIFAGYAMGWYRQAHGKERELVAAISWRGTSTYYADSVKGRFTISRDNAKNTVYLQMNSLKPEDTAVYYCAARYTKGMYYWGQGTQVTVSS,high polyreactivity
21,QVQLVESGGGLVQAGGSLRLSCAASGRTFGVNAMGWYRQAPGKERELVARIRVSGGRTYYADSVKGLFTISRDNAKNTVYLQMNSLKPEDTAVYYCNAGYTYNRVIWPYYYWGQGTQVTVSS,high polyreactivity
